Assay: yeast display, Sf9 membrane polyspecificity reagent, FACS + sequencing; frameworks hold sequencing errors
Method in brief: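 Using colony PCR, genes from sorted yeast display clones were amplified, then sequenced on MiSeq at 2 × 250 and filtered by CDR length. The clones had been stained with 10% biotinylated, detergent-solubilized Sf9 membrane reagent for 1 hour at 4 °C and sorted by FACS into low and high (top ~1%) gates on anti-HA and streptavidin fluorescence. Polyreactivity labels come from the gate of origin.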

Row | Sequence | polyreactivity (PSR sort gate)
1 | QVQLVESGGGLVQAGGSLRLSCAASGFTFGYYAMGWYRPAPGKERELVAGISSSGSRTYYADSVKGRFTISRDNAKNTVYLQMNSLKPEDTAVYYCNKYYSGKSYTGEDYWGQGTQVTVSS | high polyreactivity
2 | QVQLVESGGGLVQAGGSLRLSCAASGFTFGYYAMGWYRQAPGKERELVAAISASGASTYYADSVKGRFTISRDNAKNTVYLQMNSLKPEDTAVYYCAARPGQLTSPVTRTRYNYWGQGTQVTVSS | low polyreactivity
3 | QVQLVESGGGLVQAGGSLRLSCAASGFTFGYYAMGWYRQAPGKERELVAAITWSGGRTYYADSVKGRFTISRDNAKNTVYLQMNSLKPEDTAVYYGAVETLWQGSEYWGQGTQVTVSS | low polyreactivity
4 | QVQLVESGGGLVQAGGSLRLSCAASGFTFGYYAMGWYRQAPGKERELVAAITYDGDITYYADSVKGRFTISRDNAKNTVYLQMNSLKPEDTAVYYCAADTVYRSYYWGQGTQVTVSS | low polyreactivity
5 | QVQLVESGGGLVQAGGSLRLSCAASGFTFGYYAMGWYRQAPGKERELVAGITTDGSTNYADSVKGRFTISRDNAKNTVYLQMNSLKPEDTAVYYCAADDLHWLNSKRYRGRDYWGQGTQVTVSS | low polyreactivity
6 | QVQLVESGGGLVQAGGSLRLSCAASGFTFGYYAMGWYRQAPGKERELVATIDRGGGTSYADSVKGRFTISRDNAKNTVYLQMNSLKPEDTAVYYCAAVRQGYVAYYYWGQGTQVTVSS | high polyreactivity
7 | QVQLVESGGGLVQAGGSLRLSCAASGFTFGYYAMGWYRQARGKERELVAAISSRGSGTYYADSVKGRFTISRDNAKNTVYLQMNSLKPEDTAVYYCARPAALLGYWGQGTQVTVSS | low polyreactivity
8 | QVQLVESGGGLVQAGGSLRLSCAASGFTFHKNAMGWYRQAPGKERELVAAISRSGGRTYYADSVKGRFTISRDNAKNTVYLQMNSLKPEDTAVYYCNATPLLWAGYDYWGQGTQVTVSS | high polyreactivity
9 | QVQLVESGGGLVQAGGSLRLSCAASGFTFHVNTMGWYRQAPGKERELVAAISRSGGSTYYADSVKGRFTISRDNAKNTVYLQMNSLKPEDTAVYYCATPSPGYTYDPRTQEENDYWGQGTQVTVSS | low polyreactivity
10 | QVQLVESGGGLVQAGGSLRLSCAASGFTFHWYAMGWYRQAPGKERELVAAISWSGGSTYYADSVKGRFTISRDNAKNTVYLQMNSLKPEYTAVYYCNAGVYWPGEFDYWGQGTQVTVSS | high polyreactivity
11 | QVQLVESGGGLVQAGGSLRLSCAASGFTFHWYAMGWYRQAPGKERELVAAITDTGGSTYYADSVKGRFTISRDNAKNTVYLQMNSLKPEDTAVYYCATRHSKYGYEYDYWGQGTQVTVSS | low polyreactivity
12 | QVQLVESGGGLVQAGGSLRLSCAASGFTFHYYTMGWYRQAPGKDRELVATIRWSAGSTYYADSVKGRFTISRDNAKNTVYLQMNSLKPEDTAVYYCAVRSLRVDKYGYWGQGTQVTVSS | high polyreactivity
13 | QVQLVESGGGLVQAGGSLRLSCAASGFTFIAYAKGWYRQAPGKERELVAAISRRGGSTYYADSVKGRFTISRDNAKNTVYLQMNSLKPEDTAVYYCAKESRKKTDYDYWGQGTQVTVSS | high polyreactivity
14 | QVQLVESGGGLVQAGGSLRLSCAASGFTFIGYAMGWYRQAPGKERELVAAITWRGGRTYYADSVKGRFTISRDNAKNTVYLQMNSLKPEDTAVYYCAADGYTVVNSYYWGQGTQVTVSS | high polyreactivity
15 | QVQLVESGGGLVQAGGSLRLSCAASGFTFIKYAMGWYRQAPGKEREFVAAITRSGTSTYYADSVKGRFTISRDNAKNTVYLQMNSLKPEDTAVYYCAARYVYNSDRVSERDYWGQGTQVTVSS | high polyreactivity
16 | QVQLVESGGGLVQAGGSLRLSCAASGFTFIKYAMGWYRQAPGKEREFVPTISWNGGNTYYADSVKGRFTISRYNAKNTVYLQMNSLKPEDTAVYYCAARVKYRTRGGTVVSYDYWGQGTQVTVSS | high polyreactivity
17 | QVQLVESGGGLVQAGGSLRLSCAASGFTFILYTMGWYRQAPGKERELVAAITWRGGNTYYADSVKGRFTISRDNAKNTVYLQMNSLKPEDSAVYYCAAETYYASWEMDYWGQGTQVTVSS | high polyreactivity
18 | QVQLVESGGGLVQAGGSLRLSCAASGFTFIRYAMGWYRQAPGKERELVAAIRGTGTSTYYADSVKGRFTISRDNAKNTVYLQMNSLKPEDTAVYYCNKVSGRSPYTRYDYWGQGTQVTVSS | low polyreactivity
19 | QVQLVESGGGLVQAGGSLRLSCAASGFTFISNAMGWYRQAPGKERELVAAISSSGGRTYYADSVKGRFTISRDNAKNTVYLQMNSLKPEDTAVYYCNADRSLLYSRKIEYDYWGQGTQVSVSS | low polyreactivity
20 | QVQLVESGGGLVQAGGSLRLSCAASGFTFKFYAMGWYRQAPGKERELVAAISGSGDSTYADSVKGRFTISRDNAKNTVYLQINSLKPEDTAVYYFNGRYAGVPWWGYYSRFDYWGQVTQVTVSS | low polyreactivity
21 | QVQLVESGGGLVQAGGSLRLSCAASGFTFKKYAMGWYRQAPGKERELVAAISSSGGRTTYADSVKGRFTISRDNAKNTVYLQMNSLKPEDTAVYYCNADRYTAVRAYDYWGQGTQVTVSS | low polyreactivity
22 | QVQLVESGGGLVQAGGSLRLSCAASGFTFKRYAMGWYRQAPGKERELVAAITGSGGSTYYADSVKGRFTISRDNAKNTVYLQMNSLKPEDTAVYYCAKKRIYWSGRPTIGTYIMGYWGQGTQVTVSS | high polyreactivity

Row | Sequence | polyreactivity (PSR sort gate)
23 | QVQLVESGGGLVQAGGSLRLSCAASGFTFKSYAMGWYRQAPGKEREFVASISRRGGSTYYADSVKGRFTISRDNAKNTVYLQMNSLKPEDTAVYYCATDRPNWVFVDYNYWGQGTQVTVSS | high polyreactivity
24 | QVQLVESGGGLVQAGGSLRLSCAASGFTFKTNAMGWYRQAPGKERELVAAITSGGSTNYADSVKGRFTISRDNAKNTVYLQMNSLKPVDPAVYYCAADYGVWSEYAGWHAAFDYWGQGTQVTVSS | low polyreactivity
25 | QVQLVESGGGLVQAGGSLRLSCAASGFTFKWSAMGWYRPAPGKETELVATITIGGRTNYADSVKGRFTISRDNAKYTVYLQMNSLKPEDTAVYYGATYFVGFRLSDYDYWGQGTQVTVSS | low polyreactivity
26 | QVQLVESGGGLVQAGGSLRLSCAASGFTFKYYAMGWYRQAPGKERELVATITRSGGNTYYADSVKGRFTISRDNAKNTVYLQMNSLKPEDTAVYYCNKGVRRSVYSRYDYWGQGTQVTVSS | high polyreactivity
27 | QVQLVESGGGLVQAGGSLRLSCAASGFTFLFNAMGWYRQAPGKERELVADITWSGGSTYYADSVKGRFTISRDNAKNTVYLQMNSLKPEDTAVYYCAASDDWSTPIYYYSVFDYDYWGQGTQVTVSS | high polyreactivity
28 | QVQLVESGGGLVQAGGSLRLSCAASGFTFLGYAMGWYRKAPGKERELDASITYGGDSTYYADSVKARFTISRDNAKNTFYLEMISLKPEDTAVYYCNARPSYWWGGRLYGYWGQGSQVTVSS | high polyreactivity
29 | QVQLVESGGGLVQAGGSLRLSCAASGFTFLKYAMGWYRQAPGKERELVARITSGGRTYYADSVKGRFTISRDNAKNTVYLQMNSLKPEDTAVYYCNAVKSYASLYAGFYYWGQGTQVTVSS | high polyreactivity
30 | QVQLVESGGGLVQAGGSLRLSCAASGFTFLVYAMGWYRQAPGKERELVAAISRRGGSTYYADSVKGRFTISRDNAKNTVYLQINSLKPEDTAVYYCNVDRYYRIGYYRLTMGYWGQGTQVTVSS | high polyreactivity
31 | QVQLVESGGGLVQAGGSLRLSCAASGFTFLVYAMGWYRQAPGKERELVAAITWSGDSTYYADSVKGRFTISRDNAKNTVYLQMNSLKPEDTAVYYCAAAYRYGTLYYYWGQGTQVTGSS | low polyreactivity
32 | QVQLVESGGGLVQAGGSLRLSCAASGFTFLYNVMGWYRQAPGKERELVAAISQSGTDTYYADSVKGRFTISRDNAKNTVYLQMNSLKPEDTAVYYCATEYYSQPRDDSWGQGTQVTVSS | low polyreactivity
33 | QVQLVESGGGLVQAGGSLRLSCAASGFTFLYYDMGWYRQAPGKERELVAAITSSGTSTYYADSVKGRFTISRDNAKNSVYLQMNSLKPEDTAVYYCAVMYTYAGRHRYGYWGQGTQVTVSS | high polyreactivity
34 | QVQLVESGGGLVQAGGSLRLSCAASGFTFNANARGWYRQAPGKEREVVAVITRSGGRTYYADSVKGRFTISRDNAKNTVYFQMNSLNPEDTAVYYCAKEGPSRVYQGTDCASDSWGHGTQVTVSS | high polyreactivity
35 | QVQLVESGGGLVQAGGSLRLSCAASGFTFNCNAMGWYRQAPGKERELVAAIRSSGGSTYYADSVKGRFTISRDNAKYTVYLQMNSLKPEDTAVYYCAARRSNLYYGGTRYWYYYWGQGTQVTVSS | high polyreactivity
36 | QVQLVESGGGLVQAGGSLRLSCAASGFTFNDYAMGWYRQAPGKERELVAAIDWSGGRTYYADSVKGRFTISRDNAKNTVYLQMNSLKPDDTAVYYCAAVLYSRLYWYRLDYWGQGTQVTVSS | low polyreactivity
37 | QVQLVESGGGLVQAGGSLRLSCAASGFTFNGYAMGWYRQAPGKERELVAAINWSGGRTYYADSVKGRFTISRDNAKNTVYLQMNSLKPEDTAVYYCNAVLYVTNSFRFDYWGQGTQVTVSS | high polyreactivity
38 | QVQLVESGGGLVQAGGSLRLSCAASGFTFNNYAMGWYRQAPGKERELVAAISSGAGTYYADSVKGRFTISRDNAKNTVYLQMNSLNPVDTSVDYCNASLKYQGRTRITYRDDYWGQGTQVTVSS | low polyreactivity
39 | QVQLVESGGGLVQAGGSLRLSCAASGFTFNRNAMGWYRQAPGKERELVAAITKRGGSTFYADSVKGRFTISRDNAKNTVYLQMNSLKPEDTAVYYCAASVATYFPRHYDYWGQGTQVTVSS | high polyreactivity
40 | QVQLVESGGGLVQAGGSLRLSCAASGFTFNRYAMGWYRQAPGKEREFVAAITRRGGNTYYADSVKGRFTISRDNAKNTVYLQMNSLKPEDSAVYYCNAVFGPSSYGAKEYDYWGQGTQVTVSS | high polyreactivity
41 | QVQLVESGGGLVQAGGSLRLSCAASGFTFNRYAMGWYRQAPGKERELVARITRGGSTKYADSVKGRFTISRDNAKNTVYLEMNSLKPEDTAVYYCAADYGGFLVYDYWGQGTQVTVSS | high polyreactivity
42 | QVQLVESGGGLVQAGGSLRLSCAASGFTFNSYAMGWYRQAPGKERELVAAISWSGGSTYYADSVKGRFTISRDNAKNTVYLQMNSLKPEDTAVYYCNRDGLSRPYYYWGQGTQVTLSS | high polyreactivity
43 | QVQLVESGGGLVQAGGSLRLSCAASGFTFNSYVMGWSRQAPGKERELVAAITRSGDRTYYADSVKGRFTISRDNAKNTVYLQMNSLKPEDTAVYYCAATWSKNYYGWYYYWGQGTQVTVSS | high polyreactivity

Source: the nanobody polyreactivity screen of Harvey et al. (2022)
